In test [1] the target is T1, NT-647 labelled recombinant α-1-antitrypsin (human, UniProt P01009 25-418, NT-647 label).
T1 construct: alpha-1-antitrypsin, human, recombinant from E. coli (not glycosylated); In the functional row the recombinant protein was used without the label; also called NT-647 labeled AAT; source: E. coli recombinant system, purified in-house
Description: MST; Monolith NT.115, LED 70%, MST power 20%; 0.5 μM NT-647 labelled α-1-antitrypsin incubated 30 min with C3a at 6 nM to 205 μM. Particulars: both partners purified.

The target of test [2] is T2, α-1-antitrypsin (analyte of the SPR assay) (human, UniProt P01009 25-418).
T2 construct: alpha-1-antitrypsin, human; May be the same preparation as m1 or the unlabelled form of m2; also called AAT
Description: SPR; Biacore T200; biotinylated C3a immobilised by amine coupling on CM5 chip (800-1500 RU); serially diluted α-1-antitrypsin injected at 10 μl/minute in Dulbecco's PBS; regeneration 2.0 M KCl; blank surface subtracted. Particulars: both partners purified.

T2 sequence (P01009 25-418): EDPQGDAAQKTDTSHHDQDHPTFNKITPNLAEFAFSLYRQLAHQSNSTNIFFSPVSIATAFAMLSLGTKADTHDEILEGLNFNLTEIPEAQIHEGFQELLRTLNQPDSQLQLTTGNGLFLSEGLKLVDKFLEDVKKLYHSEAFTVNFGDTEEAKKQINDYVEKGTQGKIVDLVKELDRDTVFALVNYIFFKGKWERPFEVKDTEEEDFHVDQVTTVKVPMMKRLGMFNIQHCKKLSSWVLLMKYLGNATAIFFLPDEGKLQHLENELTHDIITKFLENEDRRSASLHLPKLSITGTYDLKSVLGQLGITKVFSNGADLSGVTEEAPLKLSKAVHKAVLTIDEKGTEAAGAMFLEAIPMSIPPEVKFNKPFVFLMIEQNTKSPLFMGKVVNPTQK
T1 sequence (P01009 25-418): as above

B1: C3a (natural protein)
chain: not shown
notes: C3a anaphylatoxin, the cut product of complement C3; also called complement C3a; complement anaphylatoxin C3a; source: bought: Complement Technology, Inc
B1: the Kd in test [1] worked out at 8.4 µM.

B2: Biotinylated-C3a (natural protein)
chain: not shown
modifications: biotin (biotinamidohexanoic acid 3-sulfo-N-hydroxysuccinimide ester, random, no more than one biotin per molecule of C3a)
notes: C3a anaphylatoxin, the cut product of complement C3; also called randomly biotinylated C3a; complement C3a; source: bought: Complement Technology Inc; biotinylated in-house
B2 displayed a Kd in test [2] of 7.53 µM.

For orientation: Kd means the constant that tells how readily two partners part at equilibrium.

Source of the values: article PMC6525112, “Vitamin D (1,25(OH)2D3) induces α-1-antitrypsin synthesis by CD4^+ T cells, which is required for 1,25(OH)2D3-driven IL-10” (The Journal of Steroid Biochemistry and Molecular Biology, 2019).
